Results from FireProtDB (doi:10.1016/j.jmb.2009.05.011).
Values joined by “and” are separate entries in the source; they are usually repeats but may differ in a detail not shown here. Identical values can stand only once.

B1: Dihydrolipoyllysine-residue succinyltransferase component of 2-oxoglutarate dehydrogenase complex, P0AFG6 (parent)
chain: MSSVDILVPDLPESVADATVATWHKKPGDAVVRDEVLVEIETDKVVLEVPASADGILDAVLEDEGTTVTSRQILGRLREGNSAGKETSAKSEEKASTPAQRQQASLEEQNNDALSPAIRRLLAEHNLDASAIKGTGVGGRLTREDVEKHLAKAPAKESAPAAAAPAAQPALAARSEKRVPMTRLRKRVAERLLEAKNSTAMLTTFNEVNMKPIMDLRKQYGEAFEKRHGIRLGFMSFYVKAVVEALKRYPEVNASIDGDDVVYHNYFDVSMAVSTPRGLVTPVLRDVDTLGMADIEKKIKELAVKGRDGKLTVEDLTGGNFTITNGGVFGSLMSTPIINPPQSAILGMHAIKDRPMAVNGQVEILPMMYLALSYDHRLIDGRESVGFLVTIKELLEDPTRLLLDV

Variants of: B1
Conditions: Escherichia coli (strain K12), pH 7, structure 1W4H, whole UniProt chain shown
[1] = 10 °C, GdnHCl, Fluorescence, 3-[morpholino]propanesulfonic acid 50 mM, NaCl 200 mM
[2] = Thermal, CD, Potassium phosphate 50 mM, KCl 200 mM
[3] = 10 °C, GdnHCl, CD, 3-[morpholino]propanesulfonic acid 50 mM, NaCl 200 mM

Row | Variant | denaturant m value [1] | Tm [2] [°C] | ddG of mutation (higher = less stable) [2] | unfolding enthalpy (van 't Hoff) [2] | ddG of mutation (higher = less stable) [3] | denaturant m value [3] | denaturant midpoint (higher = more stable) [3] | unfolding free energy [3] | unfolding free energy [1]
1 | D145N | 0.17 kcal/mol/M | 13.8 | 3.1 kcal/mol | 5 kcal/mol | – | – | – | – | –
2 | T135A | – | 36.4 | 1.36 kcal/mol | 9 kcal/mol | 1.68 kcal/mol | 0.69 kcal/mol/M | 1.51 M | 1.04 kcal/mol | 0.78 kcal/mol
3 | T135S | – | 50.4 | 0.29 kcal/mol | 21 kcal/mol | – | – | – | – | –
4 | L114W | – | – | – | – | – | 0.67 kcal/mol/M | 3.15 M | 2.11 kcal/mol | 2.22 kcal/mol
5 | A113G | – | 53.6 | 0.04 kcal/mol | 23 kcal/mol | – | – | – | – | –
6 | H125W | – | 54.1 | – | 25 kcal/mol | – | 0.7 kcal/mol/M | 3.96 M | 2.77 kcal/mol | 2.55 kcal/mol
7 | I132V | 0.47 kcal/mol/M | 44.4 | 0.75 kcal/mol | 22 kcal/mol | 0.7 kcal/mol | 0.73 kcal/mol/M | 2.88 M | 2.1 kcal/mol | –
8 | A151G | – | 53.2 | 0.07 kcal/mol | 21 kcal/mol | – | – | – | – | –
9 | L141A | 0.48 kcal/mol/M | 26.4 | 2.12 kcal/mol | 10 kcal/mol | – | – | – | – | 0.46 kcal/mol
10 | A117G | – | 49.4 | 0.37 kcal/mol | 23 kcal/mol | – | – | – | – | –
11 | H149A | – | 55 | -0.06 kcal/mol | 22 kcal/mol | – | – | – | – | –
12 | H149G | 0.45 kcal/mol/M and 0.21 kcal/mol/M | 33.9 | 1.58 kcal/mol | 8 kcal/mol | 1.87 kcal/mol | 0.64 kcal/mol/M | 1.25 M | 0.8 kcal/mol | 0.93 kcal/mol
13 | V146A | 0.48 kcal/mol/M and 0.16 kcal/mol/M | 27.9 | 2.02 kcal/mol | 9 kcal/mol | – | – | – | – | 0.47 kcal/mol
14 | I118V | – | 53.8 | 0.03 kcal/mol | 26 kcal/mol | – | – | – | – | –
15 | P116A | – | 59.1 | -0.38 kcal/mol | 24 kcal/mol | – | – | – | – | –
16 | T142S | 0.53 kcal/mol/M and 0.2 kcal/mol/M | – | – | – | – | – | – | – | 1.45 kcal/mol
17 | L150A | – | – | 0.57 kcal/mol and 1.18 kcal/mol | 23 kcal/mol and 18 kcal/mol | 0.6 kcal/mol and 0.74 kcal/mol | 0.71 kcal/mol/M and 0.69 kcal/mol/M | 3.02 M and 1.98 M | 2.14 kcal/mol and 1.37 kcal/mol | 2.13 kcal/mol and 1.46 kcal/mol
18 | V137G | 0.47 kcal/mol/M and 0.24 kcal/mol/M | 43.1 | 0.84 kcal/mol | 18 kcal/mol | 0.98 kcal/mol | 0.73 kcal/mol/M | 2.49 M | 1.82 kcal/mol | 2.03 kcal/mol
